Source: IntAct's records for PubMed 24141787

B1: Partner and localizer of BRCA2 (Homo sapiens), Q86YC2 (parent)
chain: MDEPPGKPLSCEEKEKLKEKLAFLKREYSKTLARLQRAQRAEKIKHSIKKTVEEQDCLSQQDLSPQLKHSEPKNKICVYDKLHIKTHLDEETGEKTSITLDVGPESFNPGDGPGGLPIQRTDDTQEHFPHRVSDPSGEQKQKLPSRRKKQQKRTFISQERDCVFGTDSLRLSGKRLKEQEEISSKNPARSPVTEIRTHLLSLKSELPDSPEPVTEINEDSVLIPPTAQPEKGVDTFLRRPNFTRATTVPLQTLSDSGSSQHLEHIPPKGSSELTTHDLKNIRFTSPVSLEAQGKKMTVSTDNLLVNKAISKSGQLPTSSNLEANISCSLNELTYNNLPANENQNLKEQNQTEKSLKSPSDTLDGRNENLQESEILSQPKSLSLEATSPLSAEKHSCTVPEGLLFPAEYYVRTTRSMSNCQRKVAVEAVIQSHLDVKKKGFKNKNKDASKNLNLSNEETDQSEIRMSGTCTGQPSSRTSQKLLSLTKVSSPAGPTEDNDLSRKAVAQAPGRRYTGKRKSACTPASDHCEPLLPTSSLSIVNRSKEEVTSHKYQHEKLFIQVKGKKSRHQKEDSLSWSNSAYLSLDDDAFTAPFHRDGMLSLKQLLSFLSITDFQLPDEDFGPLKLEKVKSCSEKPVEPFESKMFGERHLKEGSCIFPEELSPKRMDTEMEDLEEDLIVLPGKSHPKRPNSQSQHTKTGLSSSILLYTPLNTVAPDDNDRPTTDMCSPAFPILGTTPAFGPQGSYEKASTEVAGRTCCTPQLAHLKDSVCLASDTKQFDSSGSPAKPHTTLQVSGRQGQPTCDCDSVPPGTPPPIESFTFKENQLCRNTCQELHKHSVEQTETAELPASDSINPGNLQLVSELKNPSGSCSVDVSAMFWERAGCKEPCIITACEDVVSLWKALDAWQWEKLYTWHFAEVPVLQIVPVPDVYNLVCVALGNLEIREIRALFCSSDDESEKQVLLKSGNIKAVLGLTKRRLVSSSGTLSDQQVEVMTFAEDGGGKENQFLMPPEETILTFAEVQGMQEALLGTTIMNNIVIWNLKTGQLLKKMHIDDSYQASVCHKAYSEMGLLFIVLSHPCAKESESLRSPVFQLIVINPKTTLSVGVMLYCLPPGQAGRFLEGDVKDHCAAAILTSGTIAIWDLLLGQCTALLPPVSDQHWSFVKWSGTDSHLLAGQKDGNIFVYHYS
partner: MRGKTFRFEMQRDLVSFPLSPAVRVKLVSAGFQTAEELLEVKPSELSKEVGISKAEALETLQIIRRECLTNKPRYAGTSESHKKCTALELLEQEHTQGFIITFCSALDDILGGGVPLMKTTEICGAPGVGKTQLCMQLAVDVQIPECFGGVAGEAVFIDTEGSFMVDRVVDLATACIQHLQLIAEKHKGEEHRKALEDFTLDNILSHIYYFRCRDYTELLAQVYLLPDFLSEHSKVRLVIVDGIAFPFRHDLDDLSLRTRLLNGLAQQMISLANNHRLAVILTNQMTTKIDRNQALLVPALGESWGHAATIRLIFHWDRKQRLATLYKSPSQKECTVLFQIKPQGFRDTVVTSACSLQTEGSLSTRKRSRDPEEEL
B2: Partner and localizer of BRCA2 (Homo sapiens), Q86YC2 (parent)
chain: B1 chain
B3: Partner and localizer of BRCA2 (Homo sapiens), Q86YC2 (parent)
chain: B1 chain
partner: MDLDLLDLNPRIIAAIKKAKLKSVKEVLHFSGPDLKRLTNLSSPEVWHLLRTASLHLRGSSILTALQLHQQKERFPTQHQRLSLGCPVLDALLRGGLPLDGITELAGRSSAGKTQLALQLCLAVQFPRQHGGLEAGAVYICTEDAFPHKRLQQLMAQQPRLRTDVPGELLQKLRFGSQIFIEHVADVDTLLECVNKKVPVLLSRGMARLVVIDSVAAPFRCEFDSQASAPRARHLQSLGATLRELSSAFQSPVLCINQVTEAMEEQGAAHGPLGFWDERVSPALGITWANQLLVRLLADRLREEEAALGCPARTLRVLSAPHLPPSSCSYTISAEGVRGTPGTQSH

Variants of: B1
Conditions: with ra51c_human RAD51C

With T1030I as the variant, how does the “effect of a mutation on the interaction” value read?
Its value is “decreasing interaction”.

Variants of: B2
Conditions: with rad51_human RAD51, Q06609
Chain of rad51_human RAD51, Q06609 (Q06609 whole entry): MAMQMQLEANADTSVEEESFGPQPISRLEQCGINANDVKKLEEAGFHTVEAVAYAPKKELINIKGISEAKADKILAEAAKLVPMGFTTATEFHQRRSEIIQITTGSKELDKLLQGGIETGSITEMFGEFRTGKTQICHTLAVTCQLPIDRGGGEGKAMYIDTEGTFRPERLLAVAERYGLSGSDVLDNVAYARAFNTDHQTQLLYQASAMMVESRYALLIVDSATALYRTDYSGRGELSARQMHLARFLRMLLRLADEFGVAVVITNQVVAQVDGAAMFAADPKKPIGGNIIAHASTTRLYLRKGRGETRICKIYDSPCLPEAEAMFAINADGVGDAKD

How did the “effect of a mutation on the interaction” value turn out when L939W was run?
Its value is “decreasing interaction”.

Which “effect of a mutation on the interaction” value does the source give for T1030I here?
Its value is “decreasing interaction”.

Variants of: B3
Conditions: with xrcc3_human XRCC3, O43542

For L939W, which “effect of a mutation on the interaction” value is on record?
Its value is “decreasing interaction”.
